The results in this text go back to the DeepSol protein solubility set.

This series in a line: soluble on expression in E. coli; label from the status in PepcDB or PDB records.
As to “MQKRHTNRERYFEEQAQTTRNYYIPYIKEYTGNLPNKVLEVGCGEGGNLLPFAELGCDVIGIDIAASRIEQAQNFFITKRQKGTFIASDIFLLKDLQKHFPLILIHDVIEHIDNKEQFLRNLKKYLSPNGMIFIAFPAWQMPFGGHQQIARSKIISHMPFIHLLPRMLYKRILELFSEQESTVKELLTIKYTRCTIEMFRRVVKQTDYQIVNEQLYFINPHYKIKFGLTPHKLNKTIACIPFIRNVFSTSCFYLIRPT”, the “soluble on expression in E. coli” value is given as “not soluble”.
Take “MGSDKIHHHHHHMGACENRWTVAKALRFPGDALQTILVAAPRGDLSTFFSIECTKRVHTGRCVTTANALKVQAFHTTDVTEQVRATPGWQQQYRQMSPGYFSGELRCLGLDGVEVYEERLNTRVEQFFRAPSGSLAFCFDRSENSLYLLNEQSRNIWITPENYQEVAVVFDQAFLARHGLDPQRLEGLFMVPLGSGQNALFGSWLSATLTRLGEEGCPLQGQALAEQLLEDCLFILDNASQRLQGVALGRRDEERAIMHRVSEWAADCPEETLNLLELADVAGVSLRQLQQAFKAFTGMPPAHWLRLRRLNGARRDLLRGGGVTVAEVAMRWSFWHLGRFSESYRQLFKEFPSETLKRCRV”: the “soluble on expression in E. coli” value is recorded as “not soluble”.
With “MGSDKIHHHHHHMKLKFLGGAEEVGRLGVKITDKDTSVIVDYGVIPEKPPQYPLPPEPVDAMFITHSHLDHIGAVPVYYHKGEPDLYATQMTLNTMKPLLRDALKVTNIEGYPAMFNEDDINSALANMRPARYFESIEVGNMVATPYPAGHIPGSTMWKFEDGISVTVTGDVNTIDTYLINGAKPIKTDVLIIESTYAGKNHESREDVRKRFRDSVKEVIDSGGKVIMPAFAVGRTQELIMTIADMGYDVAVDGMGNDISTIYLNTPGFLRSKKEFLRALSKVRIIKGRNMRENAIRSDIIISTSGMLDGGPVLGYIQKLLEDEKSAIFVTGYQVEGTNGRSLLETGTLTIAGVTVKPKMRVEFFDMSAHAGHDELVNFIKAIDPKKIVLCHGDHRENLLPDLEGYDVLLPYNGKEYEI”, the “soluble on expression in E. coli” value is listed as “not soluble”.
In the case of “MPHKNTKSNVQKITASVASVIVSTGIVMNSSNRRVKATGKREDEIVEVESLKRADTETTKAAAVQTPKINQTKKMSHRTQKVTQMIHYVDEDERPVYDDYTASLIFEQTGILDNVTGKQTWNSNWLPKTTATFSAVEHPVVRNHHLVNPEINEVSAYDVEVTDDTFKNPLLKVHKVVYAHDIEPIKRTQVVTQTIHYRYEDGAVAHDDHVVSLIFTQSGKRDLTNGKEIWDSKWSLTQTFEALPSPVIIGYTADKPMVGPDEVTVDSKNFLDKQNREETVIYSANTITQNKKDGISEEKNVNNSVAVAPLKSAVMIGGVISILKFKRLMVIIKNKKDHKLEHHHHHH”, the “soluble on expression in E. coli” value is reported as “soluble”.
For “MCSTEKLSEADANLPYFHGALMNIDADQLLVNEGDFMVTMKKQLDINKLQLFLAVRLKKGIRRYEIKRTSKTAKIGGKTSQNIVKLINMLKADPIEIRGEKVVLKRAIPKGKFQLMHKDVIFQKKIGAGAYGTVYRGKLVKTDEVIAVKKLDPEGADEDGLAEMMKEARVMQLYDHPNIVKFHGFILDDLPYLLVLEYCNGGAVEDRLRDKGEKIKVPTRVKYTYMAACGMDYLHKKNCIHRDIASRNCLIHKGVVKMADFGMCRAQSVYKVDLKKPCNIRWLAPEVWDNGETRFNTDVYAFGIMMWEFFETPFKSPYVEMKAAQVKRKTRAGYRLPPPPSMPSRMVEIMSECWQVDAEKRPTAEELKEKLEEFKKKTENSITTSAPPTSVEKSKLSVSSEPTTKSVDPNKSRL” the value was “not soluble”; for “MSLAELQMLLEEEIPSGKRALIESYQNLTRVADYCENNYIQATDKRKALEETKAYTTQSLASVAYQINALANNVLQLLDIQASQLRRMESSINHISQTVDIHKEKVARREIGILTTNKNTSRTHKIIAPANMERPVRYIRKPIDYTVLDDVGHGVKWLKAKHGNNQPARTGTLSRTNPPTQKEGHHHHHH”, “not soluble”.
For “MSLTKFVSAPLICGLALLGALSAAHAQTGIPALPPIAQPLPVPAPAPVTPPAPTVPVPQEPAPVPQPPMPQPSVPQTPAPQKPVTPRPAPAPSRAPLLIQARANVPALVAGKKTTVPVLKTLTIPAERAAQLRQRGEVSASLQADLDTFLKSLAAPRDARFEQQDDGQWAVVQPNGLKVDAQATRAAVAKVLRDPRGVSANVVVTGQVAPQRTLDFFASRGITTFLATGFTSYYGSSPERVKNIHVGAQNFKDRLFEGDVFSFNKFIGPVSERNGYVPGLVIAGDQTASGVGGGICQVSTTVFRTLYGAGLGIVQRQNHSYQVFYYDPQGLDATIYQPQLDLKFANTTGGPIWFQTEWDDQEATLTITAFGQARDYQVQVDAPKTLKTVAPPKDRLIPDASLPAGQRKQVDWAAPGATIEVTRRFTRGGKTFKQDTLRSVYRPWPNIFRVGTKKEGGSHHHHHH”, the “soluble on expression in E. coli” value is recorded as “soluble”.
On to “GSHMSSPVNEEENSQRISTLHHQTMPSDLTQDEFTQLSQSIAEFHTYQLGNGRCSSLLAQRIHAPPETVWSVVRRFDRPQIYKHFIKSCNVSEDFEMRVGCTRDVNVISGLPANTSRERLDLLDDDRRVTGFSITGGEHRLRNYKSVTTVHRFEKEEEEERIWTVVLESYVVDVPEGNSEEDTRLFADTVIRLNLQKLASITEAMNRN”, for which the “soluble on expression in E. coli” value is reported as “soluble”.
Turning to “MGSDKIHHHHHHMTESEKQKLGKTLWAIADQLRGAMNADDFRDYMLAFLFLRYLSDNYEAAAQKELGTDYPDLPSDVLRQTGVNTPLQAWYEENLDDVSEFEKQMRRKVHYVIEPQYLWGNIAEMARTQDDELLHTLQKGFKYIEEESFASTFRGLFSEINLASDKLGKTYTERNARLCKIIAEIAKGLGQFSTDSDTLGDAYEYLIGQFAAGSGKKAGEFYTPQRISDILSAIVTLDSQEPATGKRSHLDSVFDFACGSGSLLLNVRRLMGPHGIGKIYGQEKNITTYNLARMNMLLHGVKDSEFEIFHGDTLLNEWDMLRETNPAKMPKFDAVVANPPFSYRWEPSEALGEDVRFKNYGLAPKSAADFAFLLHGFHFLKQDGVMAIILPHGVLFRGGAEARIRTKLLKDGHIDTVIGLPANLFFSTGIPVCILVLKKCKKPDDVLFINAAEHFERGKRQNQLLPEHIDKIIDTYRYRKEEPRYSRRVSMEEIEKNDFNLNISRYVSTAITEEEVDLNAVIGQLKAIEQEIYQAKSKHNEFLKELGLPLLP”, the “soluble on expression in E. coli” value is on record as “not soluble”.
For the sequence “MIRTLELAPHIEGGYFRQTKKASDTINLAGKGRALYTSIYFLLEETNPSHFHRLTADEIWYFHAGSPLTVHMITADGHYEAVTLGLDISKGQQLHYCVPKGTIWGSTVDKDDALVSCLVAPGFEFEDFELFERVDLLATYPEHKEMIERLTRYLEHHHHHH”, the “soluble on expression in E. coli” value is reported as “not soluble”.
As for “MGSDKIHHHHHHMVEHRGFDVLSLPWLDVPRQAFLTQLQTQKVPHAQLVGIDSAYGGELLSVFMARAAMCSQPTHTGGCGFCKSCQLFDAGNHPDFYQIEADGHQIKVDQIRELCSRLSATAQQSGRRVAIIHHSERLNSASANALLKTLEEPGKDTLLLLHSDTPARLMATISSRCQRLPFVAPSKTLIKNWLIQQCQIQEDVTWCLSVVGGPLKLAESLQSNSTQPSRYQTLLGFRKDWAQSLSSGHLCASLLIISEQQIIDALKVLYLLLRQILLKNGNQDAYVQAQIGNLAAKVMGMCHSLSAMPSVNYLGLCQSYVLEYRDITNK”, the “soluble on expression in E. coli” value is given as “not soluble”.
Turning to “MGSDKIHHHHHHMEQTGYGEHIAHTVRNVPYETAIQTEDIAGELAKKFALPYNHAKTITNVKLKRMADKGEIERLQKGIYCHVKQTFFGKVTPTADQVLLKTLMVQNGAKIGYESGASLLNKLGLTTLIPRDIEITTNRYGAKLPEGCHIKLRKPPMPVTDENWKYLQFIDVLMYLPDAHTDAEKPEVLLRQHAKEQQLDYLTLIFTARKYYPQKIVLPLIDLLMEVENETASR”, the “soluble on expression in E. coli” value was “not soluble”.
Consider “MSLSDFHEVRFPLDVALRGSGGPVRRTEIVTLASGQEHRNSRWADSRRRYDAGLGMRTLDALHAVLSFFEERRGRMYGFRYRDRVDYRSGPPSQAPAPIDQAIGTGDGATRVFALAKTYGGGPQAYRRTIAKPVAGSVRVAVNGVELAAGAVSCDPATGRLTFAPGAVPPPGAAITAGFEFDVPVRFDTDELSIDMAAFTAGEVPRIPLIEIVLEGHHHHHH”, for which the “soluble on expression in E. coli” value is listed as “soluble”.
In the case of “MNKWSRLYVITVRRTFPGRRNIVLTQYWNKSKKMSDESNDVKWNDALTPLQLMVLRDKATERPNTGAYLHTNESGVYHCANCDRPLYSSKAKFDARCGWPAFYEEVSPGAITYHRDNSLMPARVEICCARCGGHLGHVFEGEGWKQLLNLPKDTRHCVNSASLNLKKD”, the “soluble on expression in E. coli” value is recorded as “not soluble”.
Take “MAHHHHHHMEVGQRCRLLVADCTYTHATNSSDDIHGNGFTVTGVVVGVRPHAEEPWRRLYYVHCTRIEFGTELARQRRKAAAPSWSGAPLSTIGSGTIHSCNELRAAGGSFVSNGGYHYRYDGWYDAFALTPLSADVALANNTAAMASAGSSPPEPPATVSEPRDDEGAASASAVSHLPGQHRDAPEEWVAAMERDTAVCEVVYLCYAFQPWFSAPYSALQYLALPEDDVCHSVYVCHRCLSPFFTREQYYVHLAGEYCRLRTPPGRLIYHDEDAGYKAFLVDGAKNLHYGRCLSLLSKQLIESKVLSNDVDLYEYVVVTIPRASLPYMPAALPSCTSAEQCGVANLVALSREGFRQAASDFDAEDWDGDAVMGYFSRLKHHPDHTLSCIVTLPMFQRTRVATFLLDVAYWMTRQRQRLCGCGFCGRSGGAISRPFSPHGQSLLLSYWRRALLRSLAEVAPLHRRASRTAQPELRFTLAELRALMDIPIHTNDMETLLLHSEFAFYQPAAANAAAARYSDDDDSASPPTSPTSARRRQRHERGSTSTSLKDSQASSGSKLSSSSAGGSAGNGGSSTSGARYTGTLVLEAALLEAAAELHTKTPRSCVMFDKRWLVKDGRGAYAYDTPYYHH”: the “soluble on expression in E. coli” value is reported as “not soluble”.
Turning to “MGHHHHHHSHMIQPRLLADAIVLFTSSQEEVTLAVTPLNFCLKSSNEESMDLSNAVHSEMFVGSDEFDFFQIGMDTEITFCFKELKGILTFSEATHAPISIYFDFPGKPLALSIDDMLVEANFILATLADEQSRASSPQSLCLSQKRKRSDLIEKKAGKNVTGQALECISKKAAPRRLYPKETLTNISALENCGSPAMKRVDGDVSEVSESSVSNTEEVPGSLCLRKFSCMFFGAVSSDQQEHFNHPFDSLARASGSEEDMNNVCCRKEFNGSDAEYFCII”, the “soluble on expression in E. coli” value was “not soluble”.
Consider “ALMGGIVDVEGAQNSAEVEELARFAVDEHNKKENALLQFSRLVKAKQQVVSGIMHHLTVEVIEGGKKKVYEAKVWVQAWLNSKKLHEFSPI”, for which the “soluble on expression in E. coli” value is on record as “soluble”.
As for “MNFRTGQPSDAAALAAISIEVWLGTYMRKGVSAFFAEYALNEFTSTKMASLLKDPNEHVIVSENEGGIDAFIRLGQGRAAPVSGCSTLEIATLYVQPRHHRRGLGRALLEQGLAYARQASAPSVWLTTNSENAPAIAFYLEQGFEKVGTTHFNIGDQ”, the “soluble on expression in E. coli” value is given as “not soluble”.
Take “MGSDKIHHHHHHSQERTLFPTEKTDRVPLSVFTSFKADVTTRATAQPLPEGSSIGVFLIADANYTPQSNVKYTCQPDDEWTSETSVWVGGARAGLCAYYPFGKVTFSADIQTQTTLKNQAYTEDADWWYAKDNAAVTVTNLSPEIEFLLEKPYSQLSLEMIRNGRYPLQCKITNVRIELENGESMVDTGTFDIKDGSLQNTTDVTSYSYPTSGPMHDTGLGVGEAARDTTCNYLFVPQILASGLKLTLTIDEREFSVIVPQADLGELIAGKRHVVRLDIRGGIPINIVEVTTKEWQSTSLDGGDATTIKDTTEIIIDGGKVGTEDWASDPTENGSGAL”: the “soluble on expression in E. coli” value is “not soluble”.
Regarding “MGSDKIHHHHHHMPGQLKVTLLDSPNPLSKANPIHLKPLVNHCMDCRVSGLCLPTGLPVDENSCLGALIGPRMRIRKGAALFNANDPLTMLYALRCGSFKTSLNTAEGQGVVINFWMPGDVIGLDAIATEHHVCDAIALEDSEVCPVPYRRLQTLAREFPDLQQSLNRLMSREIVREHGRVLMLCNLTAEQRLASFLVGLSRRFVSRGYSAHGFMLRMSREDMASYLGLRLETVCRSVARLRALGIVDLHGRLVEILDMPALMALEQGGGECEAKGP”, the “soluble on expression in E. coli” value is reported as “not soluble”.
